Experimental data: article PMC5290946
pKd: −log10 of the molar value.

Target: His-MxiC(C184A/C233S/A247C/S290C), labelled with MTSL (Shigella flexneri) (UniProt Q04640)
Experiment: continuous wave EPR; X-band, room temperature; MTSL-labelled His-MxiC(Cys) at ~75 μM with a 10-fold (~750 μM) or n-fold excess of the unlabelled partner, in 20 mM Tris-HCl pH 7.5, 100 mM NaCl; binding read from the change of the spin labels' spectrum; KD estimated from the molar ratio that gives half of the maximal change

Question: With “His6-IpaD(15-332) C322S (from UniProt P18013 15-332) (domain or fragment)” as the substance, how does the pKd read?
Answer: 3.14
